Results as given in US20130089536.

Biological target: Aβ1-40 peptide (UniProt P05067)

## hGCP II (wild type human glutamate carboxypeptidase II expressed from cDNA in cells)
  Aβ1-40 cleavage in primary rat astrocytes (Aβ1-40 in growth medium by ELISA): 2-PMPA did not block A1-40 cleavage of lentiviral GCP II
